Experimental data from patent US11623951B2, “Antibodies to R-spondin 3” (National Health Research Institutes, priority 2017, dated 2023).

T1: RSPO3 / RNF43 binding (Homo sapiens, UniProt Q9BXY4)
T1 construct: purchased Peprotech (RSPO3); Sino Biological (RNF43-His) 16108-H08H (RNF43)
T1 sequence (Q9BXY4 22-272): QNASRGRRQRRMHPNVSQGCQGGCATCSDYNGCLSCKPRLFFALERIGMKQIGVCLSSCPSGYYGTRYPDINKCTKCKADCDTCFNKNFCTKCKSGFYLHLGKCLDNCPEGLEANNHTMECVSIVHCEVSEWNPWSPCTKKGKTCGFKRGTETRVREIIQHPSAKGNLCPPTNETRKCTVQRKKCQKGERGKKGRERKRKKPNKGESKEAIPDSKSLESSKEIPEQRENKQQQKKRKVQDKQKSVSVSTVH

T2: recombinant human RSPO3 protein (hRSPO3) (Homo sapiens, UniProt Q9BXY4)
T2 sequence (Q9BXY4 22-272): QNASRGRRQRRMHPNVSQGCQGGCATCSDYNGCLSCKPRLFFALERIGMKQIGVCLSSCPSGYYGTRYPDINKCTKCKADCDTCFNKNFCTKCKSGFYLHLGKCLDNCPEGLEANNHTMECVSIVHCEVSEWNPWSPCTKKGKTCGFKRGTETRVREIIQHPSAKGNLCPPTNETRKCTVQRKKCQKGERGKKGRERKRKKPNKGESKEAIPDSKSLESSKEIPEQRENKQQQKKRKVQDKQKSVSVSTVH


Key:
[1] = biological target: T1, RSPO3 / RNF43 binding; assay: Competitive ELISA of RSPO3 binding to RNF43; settings: RNF43-His 200 ng/ml, antibody 20 μg/ml
Source text: FIG. 10 is a set of graphs showing competitive binding of RSPO3 to LGR5 or RNF43 by different α-RSPO3 antibodies. To exam whether different α-RSPO3 antibodies might compete with the binding of RSPO3 to LGR5 or RNF43, recombinant hRSPO3 was coated on a plate. (A) Recombinant LGR5 (22-560)-Fc was conjugated with biotin to facilitate detection. Biotinylated LGR5 was then respectively mixed with various concentrations of either α-RSPO3 antibodies or isotype control Ab and applied to RSPO3-coated wells. Streptavidin-HRP was then added to detect bound biotinylated LGR5; and (B) Mixtures of recombinant His-tagged RNF43 and different α-RSPO3 antibodies, respectively, were applied to each RSPO3-coated wells. Mouse anti-His tag antibody-HRP was then added for detection of bound RNF43. […] The colorimetric reaction was then stopped by 2N HCL and the optical density at 450 nm of each well was determined immediately.
To exam whether different α-RSPO3 antibodies might compete with the binding of RSPO3 to RNF43, mixtures of recombinant Hig-tagged RNF43 (RNF43-His16108-H08H, Sino Biological) at 200 ng/ml and 20 μg/ml of different α-RSPO3 antibodies, respectively, were applied to each well. […] The colorimetric reaction was then stopped by 2N HCL and the optical density at 450 nm of each well were determined immediately.

[2] = biological target: T2, recombinant human RSPO3 protein (hRSPO3); assay: Biacore T200 binding kinetics to immobilized hRSPO3; settings: for equilibrium dissociation constants, KD (in words): Biacore T200; for koff (1/s, *10^−5) / kon (1/Ms, *10^6): Biacore T200, 25° C., 1:1 model
Method: FIG. 7 is a graph showing use of Biacore to measure the binding kinetics of α-RSPO3 Abs-antigen interaction. The binding sensorgrams were generated using a Biacore T200 and then fitted to a simple 1:1 interaction model. A series of concentrations of hB1 (0.39-6.25 nM) were injected in a single-cycle with no regenerating of the surface between injections. The association was monitored for 2 min, and the final dissociation time was 15 min hRSPO3 was immobilized on a CM5 chip at 27.5 RU.
The binding kinetics between α-RSPO3 Abs and recombinant human RSPO3 protein (hRSPO3) were performed at 25° C. using a Biacore T200 biosensor equipped with a CM5 Series S Sensor Chip (GE Healthcare). Running buffer was HBS-EP Buffer (0.01 M HEPES pH 7.4, 0.15 M NaCl, 3 mM EDTA, 0.005% v/v Surfactant P20) with final pH 7.4. hRSPO3 protein was immobilized on CM5 sensor chips with coating densities of about 27.5 response units (RU). The α-RSPO3 Abs were serially diluted 2-fold from 6.25 nM to 0.39 nM in HBS-EP and were injected over the chip surface for 120 s each at a flow rate of 30 μL/min, followed by a final 900 s dissociation phase. Obtained sensorgrams were corrected by double subtracting the signal obtained on a reference surface and the signal of the running buffer. Sensograms were fit globally with BIAcore T200 evaluation software 3.0 using 1:1 binding model to yield affinity constants (KD values) for α-RSPO3 Abs. Replicate measurements were made in separate experiments, using independently prepared α-RSPO3 Abs dilution series and huRSPO3-coated chip surfaces.

[3] = tested on: DLD-1 cells; assay: Wound healing (migration) assay in DLD-1 cells; assay type: cell-based, human; settings: 100 μg/ml antibody, Wnt3a 20 ng/ml and RSPO3 50 ng/ml
Method: FIG. 11 is a graph showing the effects of different α-RSPO3 antibodies on wound healing in the DLD-1 cell model. The percentages of wound closure were calculated and shown in the bar graph.
DLD-1 cells were seeded at 40000 cells per well in Culture-Insert 2 Well (ibidi, Martinsried, Germany) with RPMI medium containing 10% FBS for 16 hours. After removing the culture insert, cells were either treated with 100 μg/ml control human IgG1 antibodies or 100 μg/ml anti-RSPO3 antibodies in low serum (0.5%) medium in the presence of 20 ng/ml Wnt3a and 50 ng/ml RSPO3. Samples were then subjected to live cell image time lapse microscopy system (Leica AF6000 LX) to observe migration of DLD-1 cells. Three positions of each well under 10× objective lens were selected at the beginning and phase images of these positions were acquired by Zyla 4.2 sCMOS camera every 30 minutes for up to 60 hours.

equilibrium dissociation constants, KD (in words) [2] | koff (1/s, *10^−5) [2] | kon (1/Ms, *10^6) [2] | Molecule | competition with RNF43 for binding to RSPO3 [1] | wound healing activity of DLD-1 cells [3]
picomolar (pM) levels | 3.4 ± 0.1 1/s, *10^−5 | 1.7 ± 0.8 1/Ms, *10^6 | hB1: humanized α-RSPO3 antibody derived from murine clone B1; VH SEQ ID NO: 14, VL SEQ ID NO: 16 (antibody, V domains shown, Heavy chain variable region; Light chain variable region) VH: QIQLQESGPGLVKPSESLSLTCSVTGYSITSGYYWNWIRQFPGNGLEWMGYISYDGTNNYNPSLKDRISITRDTSKNQFFLKLNSVTAADTATYYCSVLLIQYFNIWGKGTTVTVSS VL: DIQMTQSPSSLSASVGERVTITCRTSESVNNFLAWFHQKPGKSPKLLVYHAKTLADGVSSRFSGSGSGTQYSLKINSLQPEDFGNYYCQHFWSIPWTFGGGTKLEIKR | did not interfere with the binding between RNF43 and RSPO3 | able to inhibit wound healing activity
picomolar (pM) levels | 18.1 ± 0.1 1/s, *10^−5 | 9.4 ± 1.8 1/Ms, *10^6 | rosmantuzumab (antibody, chains of the INN, looked up, V domains shown) VH: QVQLVQSGAEVKKPGASVKVSCKASGYTFTDYSIHWVRQAPGQGLEWIGYIYPSNGDSGYNQKFKNRVTMTRDTSTSTAYMELSRLRSEDTAVYYCATYFANNFDYWGQGTTLTVSS VL: DIQMTQSPSSLSASVGDRVTITCKASQSVDYDGDSYMNWYQQKPGKAPKLLIYAASNLESGVPSRFSGSGSGTDFTLTISPVQAEDFATYYCQQSNEDPLTFGAGTKLELK | did not interfere with the binding between RNF43 and RSPO3 | able to inhibit wound healing activity
